The text below walks through data of patent US6150511 (Fox Chase Cancer Center).

The target in this data set is LexA repressor (UniProt P0A7C2 P0A7C2:1-202). The data set is described as follows: operator region protected from integration by wild type IN; 5 mM MgCl2, 37 C. Conditions: chain copies: 2 (stated). On the procedure: Assay for integration into pBR322 targets containing lexA operators. Integration of the model viral DNA duplex into a heterologous target was measured using a PCR-based assay similar to that described by Pryciak et al., EMBO J. 11: 291–303 (1992). The target DNAs, pBR322 derivatives, contain the lexA operator region. To measure integration into a specific region, a "target" PCR primer was selected, which was ca. 250 bp from the lexA operator region. The "viral" primer was identical to the 16nt DNA strand to be joined to the target DNA. The length of the PCR product corresponds to the distance from the target primer site to the integration site. Integration assays contained approximately 0.2 pmoles of PstI linerarized plasmid target DNA, 35 pmoles of IN or IN-lexA fusion protein and 0.1 pmol of viral DNA ends (model substrate). The reaction mixture contained 20 mM Tris-HCl and 5 mM MgCl_2. The viral DNA substrate was a 18 mer/16 mer duplex with a recessed end. This corresponds to a processed viral DNA end, as described previously (Katzman et al., 1989, supra). […] Recovery of target DNA was monitored by agarose gel electrophoresis. […] Products were analyzed on 7% acrylamide-urea sequencing gels. Fragment sizes were determined using a ØX174HaeIII digest and a 10 bp ladder (Bethesda Research Labs).
LexA repressor, sequence (P0A7C2 whole entry, one chain of several): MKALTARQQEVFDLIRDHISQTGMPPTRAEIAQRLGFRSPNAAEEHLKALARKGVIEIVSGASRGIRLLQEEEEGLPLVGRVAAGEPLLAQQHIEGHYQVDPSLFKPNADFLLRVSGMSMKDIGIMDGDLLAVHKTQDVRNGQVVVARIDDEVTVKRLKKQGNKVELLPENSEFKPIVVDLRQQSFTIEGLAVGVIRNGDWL

B1: tandem lexA operator segment (in pBR711-2) (dsDNA)
DNA 1: GGGGTCGACATTACTGTATATATATACAGCATAACTGTATATATATACAGTATAGGATCCGGG
DNA 2: CCCGGATCCTATACTGTATATATATACAGTTATGCTGTATATATATACAGTAATGTCGACCCC
As to B1, the binding result was “binds”.
